Reference: patent US20220306695A1, “COMPSTATIN ANALOGUES AND THEIR MEDICAL USES” (priority 2019, published 2022)
Starred links: 1 amine or outer side, 2 acyl side, 3 side chain; linkers in the order of their positions; H or OH if unused. Positions of bridges follow the written chain, without caps; N, C: chain ends. Non-standard residues stand in square brackets, D forms with d. Groups on a side chain read outwards from the residue. *: point of attachment. Trp(1-Me) = Cn1cc(C[C@H](N)C(=O)O)c2ccccc21; C18 diacid = O=C(O)CCCCCCCCCCCCCCCCC(=O)*; C16 diacid = O=C(O)CCCCCCCCCCCCCCC(=O)*; γGlu = O=C(O)[C@H](CCC(=O)[*:2])N[*:1]; 2Nal = N[C@@H](Cc1ccc2ccccc2c1)C(=O)O; hCys = N[C@@H](CCS)C(=O)O; AEEA = NCCOCCOCC(=O)O; Sar = CNCC(=O)O

B1: Compound 44 (peptide)
peptide: Ac-EGSAICIWQDWGEHRC[Sar]EGE-NH2
modifications: disulfide 6-16
SMILES: CC[C@H](C)[C@H](NC(=O)[C@H](C)NC(=O)[C@H](CO)NC(=O)CNC(=O)[C@H](CCC(=O)O)NC(C)=O)C(=O)N[C@H]1CSSC[C@@H](C(=O)N(C)CC(=O)N[C@@H](CCC(=O)O)C(=O)NCC(=O)N[C@@H](CCC(=O)O)C(N)=O)NC(=O)[C@H](CCCNC(=N)N)NC(=O)[C@H](Cc2c[nH]cn2)NC(=O)[C@H](CCC(=O)O)NC(=O)CNC(=O)[C@H](Cc2c[nH]c3ccccc23)NC(=O)[C@H](CC(=O)O)NC(=O)[C@H](CCC(N)=O)NC(=O)[C@H](Cc2c[nH]c3ccccc23)NC(=O)[C@H]([C@@H](C)CC)NC1=O
B2: Compound 41 (peptide)
peptide: Ac-SAICIWQDWGEHRC[Sar]E-NH2
modifications: disulfide 4-14
SMILES: CC[C@H](C)[C@H](NC(=O)[C@H](C)NC(=O)[C@H](CO)NC(C)=O)C(=O)N[C@H]1CSSC[C@@H](C(=O)N(C)CC(=O)N[C@@H](CCC(=O)O)C(N)=O)NC(=O)[C@H](CCCNC(=N)N)NC(=O)[C@H](Cc2c[nH]cn2)NC(=O)[C@H](CCC(=O)O)NC(=O)CNC(=O)[C@H](Cc2c[nH]c3ccccc23)NC(=O)[C@H](CC(=O)O)NC(=O)[C@H](CCC(N)=O)NC(=O)[C@H](Cc2c[nH]c3ccccc23)NC(=O)[C@H]([C@@H](C)CC)NC1=O
B3: Compound 155 (peptide)
peptide: Ac-GEFAI[Trp(1-Me)]QEWGEHR[hCys][Sar]EGE[AEEA]ESK([γGlu-Gly-γGlu-C18 diacid])-NH2
modifications: thioether 4-14
SMILES: CC[C@H](C)[C@@H]1NC(=O)[C@@H](NC(=O)[C@H](Cc2ccccc2)NC(=O)[C@H](CCC(=O)O)NC(=O)CNC(C)=O)CSCC[C@@H](C(=O)N(C)CC(=O)N[C@@H](CCC(=O)O)C(=O)NCC(=O)N[C@@H](CCC(=O)O)C(=O)NCCOCCOCC(=O)N[C@@H](CCC(=O)O)C(=O)N[C@@H](CO)C(=O)N[C@@H](CCCCNC(=O)CC[C@H](NC(=O)CNC(=O)CC[C@H](NC(=O)CCCCCCCCCCCCCCCCC(=O)O)C(=O)O)C(=O)O)C(N)=O)NC(=O)[C@H](CCCNC(=N)N)NC(=O)[C@H](Cc2c[nH]cn2)NC(=O)[C@H](CCC(=O)O)NC(=O)CNC(=O)[C@H](Cc2c[nH]c3ccccc23)NC(=O)[C@H](CCC(=O)O)NC(=O)[C@H](CCC(N)=O)NC(=O)[C@H](Cc2cn(C)c3ccccc23)NC1=O
B4: Compound 163 (peptide)
peptide: Ac-SEFAI[Trp(1-Me)]QDWGEHR[hCys]TEGE[AEEA]ESK([γGlu-C18 diacid])-OH
modifications: thioether 4-14
B5: Ac-IC(1)X…(1)T-NH2 with Phenylalanine at position 3 (peptide)
peptide: Ac-ICFWQDWGEHRCT-NH2
modifications: disulfide 2-12
SMILES: CC[C@H](C)[C@H](NC(C)=O)C(=O)N[C@H]1CSSC[C@@H](C(=O)N[C@H](C(N)=O)[C@@H](C)O)NC(=O)[C@H](CCCNC(=N)N)NC(=O)[C@H](Cc2c[nH]cn2)NC(=O)[C@H](CCC(=O)O)NC(=O)CNC(=O)[C@H](Cc2c[nH]c3ccccc23)NC(=O)[C@H](CC(=O)O)NC(=O)[C@H](CCC(N)=O)NC(=O)[C@H](Cc2c[nH]c3ccccc23)NC(=O)[C@H](Cc2ccccc2)NC1=O
B6: Compound 52 (peptide)
peptide: Ac-ICI[2Nal]QDWGEHRCTGAES-NH2
modifications: disulfide 2-12
SMILES: CC[C@H](C)[C@H](NC(C)=O)C(=O)N[C@H]1CSSC[C@@H](C(=O)N[C@H](C(=O)NCC(=O)N[C@@H](C)C(=O)N[C@@H](CCC(=O)O)C(=O)N[C@@H](CO)C(N)=O)[C@@H](C)O)NC(=O)[C@H](CCCNC(=N)N)NC(=O)[C@H](Cc2c[nH]cn2)NC(=O)[C@H](CCC(=O)O)NC(=O)CNC(=O)[C@H](Cc2c[nH]c3ccccc23)NC(=O)[C@H](CC(=O)O)NC(=O)[C@H](CCC(N)=O)NC(=O)[C@H](Cc2ccc3ccccc3c2)NC(=O)[C@H]([C@@H](C)CC)NC1=O
B7: Compound 45 (peptide)
peptide: Ac-EGSAFCIWQDWGEHRC[Sar]E-NH2
modifications: disulfide 6-16
SMILES: CC[C@H](C)[C@@H]1NC(=O)[C@@H](NC(=O)[C@H](Cc2ccccc2)NC(=O)[C@H](C)NC(=O)[C@H](CO)NC(=O)CNC(=O)[C@H](CCC(=O)O)NC(C)=O)CSSC[C@@H](C(=O)N(C)CC(=O)N[C@@H](CCC(=O)O)C(N)=O)NC(=O)[C@H](CCCNC(=N)N)NC(=O)[C@H](Cc2c[nH]cn2)NC(=O)[C@H](CCC(=O)O)NC(=O)CNC(=O)[C@H](Cc2c[nH]c3ccccc23)NC(=O)[C@H](CC(=O)O)NC(=O)[C@H](CCC(N)=O)NC(=O)[C@H](Cc2c[nH]c3ccccc23)NC1=O
B8: Compound 11 (peptide)
peptide: Ac-[Sar]CIWQDWGEHRCT-NH2
modifications: disulfide 2-12
SMILES: CC[C@H](C)[C@@H]1NC(=O)[C@@H](NC(=O)CN(C)C(C)=O)CSSC[C@@H](C(=O)N[C@H](C(N)=O)[C@@H](C)O)NC(=O)[C@H](CCCNC(=N)N)NC(=O)[C@H](Cc2c[nH]cn2)NC(=O)[C@H](CCC(=O)O)NC(=O)CNC(=O)[C@H](Cc2c[nH]c3ccccc23)NC(=O)[C@H](CC(=O)O)NC(=O)[C@H](CCC(N)=O)NC(=O)[C@H](Cc2c[nH]c3ccccc23)NC1=O
B9: Ac-IC(1)X…(1)T-NH2 with Leucine at position 3 (peptide)
peptide: Ac-ICLWQDWGEHRCT-NH2
modifications: disulfide 2-12
SMILES: CC[C@H](C)[C@H](NC(C)=O)C(=O)N[C@H]1CSSC[C@@H](C(=O)N[C@H](C(N)=O)[C@@H](C)O)NC(=O)[C@H](CCCNC(=N)N)NC(=O)[C@H](Cc2c[nH]cn2)NC(=O)[C@H](CCC(=O)O)NC(=O)CNC(=O)[C@H](Cc2c[nH]c3ccccc23)NC(=O)[C@H](CC(=O)O)NC(=O)[C@H](CCC(N)=O)NC(=O)[C@H](Cc2c[nH]c3ccccc23)NC(=O)[C@H](CC(C)C)NC1=O
B10: Compound 156 (peptide)
peptide: Ac-SEFAI[Trp(1-Me)]QDWGEHR[hCys]TEGE[AEEA][AEEA]K([γGlu-Gly-γGlu-C18 diacid])-NH2
modifications: thioether 4-14
SMILES: CC[C@H](C)[C@@H]1NC(=O)[C@@H](NC(=O)[C@H](Cc2ccccc2)NC(=O)[C@H](CCC(=O)O)NC(=O)[C@H](CO)NC(C)=O)CSCC[C@@H](C(=O)N[C@H](C(=O)N[C@@H](CCC(=O)O)C(=O)NCC(=O)N[C@@H](CCC(=O)O)C(=O)NCCOCCOCC(=O)NCCOCCOCC(=O)N[C@@H](CCCCNC(=O)CC[C@H](NC(=O)CNC(=O)CC[C@H](NC(=O)CCCCCCCCCCCCCCCCC(=O)O)C(=O)O)C(=O)O)C(N)=O)[C@@H](C)O)NC(=O)[C@H](CCCNC(=N)N)NC(=O)[C@H](Cc2c[nH]cn2)NC(=O)[C@H](CCC(=O)O)NC(=O)CNC(=O)[C@H](Cc2c[nH]c3ccccc23)NC(=O)[C@H](CC(=O)O)NC(=O)[C@H](CCC(N)=O)NC(=O)[C@H](Cc2cn(C)c3ccccc23)NC1=O
B11: Compound 159 (peptide)
peptide: EGSAYAIWQDWGEHRCGEKEK
modifications: not fully specified; N-acetyl; C-terminal amide; delta-cystathionine (Ctt2) thioether bridge A6-hCys16 (hCys written C); W8 is 1-Me-Trp; G17 is Sar; E20 is γGlu; K21 side chain bears [17-carboxy-heptadecanoyl][γGlu][Peg3][Peg3]
B12: Compound 40 (peptide)
peptide: Ac-GSAICIWQDWGEHRC[Sar]E-NH2
modifications: disulfide 5-15
SMILES: CC[C@H](C)[C@H](NC(=O)[C@H](C)NC(=O)[C@H](CO)NC(=O)CNC(C)=O)C(=O)N[C@H]1CSSC[C@@H](C(=O)N(C)CC(=O)N[C@@H](CCC(=O)O)C(N)=O)NC(=O)[C@H](CCCNC(=N)N)NC(=O)[C@H](Cc2c[nH]cn2)NC(=O)[C@H](CCC(=O)O)NC(=O)CNC(=O)[C@H](Cc2c[nH]c3ccccc23)NC(=O)[C@H](CC(=O)O)NC(=O)[C@H](CCC(N)=O)NC(=O)[C@H](Cc2c[nH]c3ccccc23)NC(=O)[C@H]([C@@H](C)CC)NC1=O
B13: Compound 145 (peptide)
peptide: Ac-EFCI[Trp(1-Me)]QDWGEHRC[Sar]EA[AEEA][AEEA]K([γGlu-Gly-γGlu-C18 diacid])-NH2
modifications: disulfide 3-13
SMILES: CC[C@H](C)[C@@H]1NC(=O)[C@@H](NC(=O)[C@H](Cc2ccccc2)NC(=O)[C@H](CCC(=O)O)NC(C)=O)CSSC[C@@H](C(=O)N(C)CC(=O)N[C@@H](CCC(=O)O)C(=O)N[C@@H](C)C(=O)NCCOCCOCC(=O)NCCOCCOCC(=O)N[C@@H](CCCCNC(=O)CC[C@H](NC(=O)CNC(=O)CC[C@H](NC(=O)CCCCCCCCCCCCCCCCC(=O)O)C(=O)O)C(=O)O)C(N)=O)NC(=O)[C@H](CCCNC(=N)N)NC(=O)[C@H](Cc2c[nH]cn2)NC(=O)[C@H](CCC(=O)O)NC(=O)CNC(=O)[C@H](Cc2c[nH]c3ccccc23)NC(=O)[C@H](CC(=O)O)NC(=O)[C@H](CCC(N)=O)NC(=O)[C@H](Cc2cn(C)c3ccccc23)NC1=O
B14: Compound 160 (peptide)
peptide: Ac-SEFAI[Trp(1-Me)]QDWGEHR[hCys][Sar]EGE[AEEA][AEEA]K([γGlu-Gly-γGlu-C16 diacid])-NH2
modifications: thioether 4-14
B15: Compound 158 (peptide)
peptide: Ac-EFAI[Trp(1-Me)]QEWGEHR[hCys][Sar]EA[AEEA][AEEA]K([γGlu-Gly-γGlu-C18 diacid])-NH2
modifications: thioether 3-13
SMILES: CC[C@H](C)[C@@H]1NC(=O)[C@@H](NC(=O)[C@H](Cc2ccccc2)NC(=O)[C@H](CCC(=O)O)NC(C)=O)CSCC[C@@H](C(=O)N(C)CC(=O)N[C@@H](CCC(=O)O)C(=O)N[C@@H](C)C(=O)NCCOCCOCC(=O)NCCOCCOCC(=O)N[C@@H](CCCCNC(=O)CC[C@H](NC(=O)CNC(=O)CC[C@H](NC(=O)CCCCCCCCCCCCCCCCC(=O)O)C(=O)O)C(=O)O)C(N)=O)NC(=O)[C@H](CCCNC(=N)N)NC(=O)[C@H](Cc2c[nH]cn2)NC(=O)[C@H](CCC(=O)O)NC(=O)CNC(=O)[C@H](Cc2c[nH]c3ccccc23)NC(=O)[C@H](CCC(=O)O)NC(=O)[C@H](CCC(N)=O)NC(=O)[C@H](Cc2cn(C)c3ccccc23)NC1=O
B16: Compound 162 (peptide)
peptide: Ac-SEFAI[Trp(1-Me)]QDW[Sar]EHR[hCys][Sar]E[AEEA][AEEA]K([γGlu-Gly-γGlu-C18 diacid])-OH
modifications: thioether 4-14

Each binder was assayed against Human C3 (human, UniProt P01024 23-1663) (assay: cell-based or functional assay).
Chain of Human C3 (P01024 23-1663 limits assumed): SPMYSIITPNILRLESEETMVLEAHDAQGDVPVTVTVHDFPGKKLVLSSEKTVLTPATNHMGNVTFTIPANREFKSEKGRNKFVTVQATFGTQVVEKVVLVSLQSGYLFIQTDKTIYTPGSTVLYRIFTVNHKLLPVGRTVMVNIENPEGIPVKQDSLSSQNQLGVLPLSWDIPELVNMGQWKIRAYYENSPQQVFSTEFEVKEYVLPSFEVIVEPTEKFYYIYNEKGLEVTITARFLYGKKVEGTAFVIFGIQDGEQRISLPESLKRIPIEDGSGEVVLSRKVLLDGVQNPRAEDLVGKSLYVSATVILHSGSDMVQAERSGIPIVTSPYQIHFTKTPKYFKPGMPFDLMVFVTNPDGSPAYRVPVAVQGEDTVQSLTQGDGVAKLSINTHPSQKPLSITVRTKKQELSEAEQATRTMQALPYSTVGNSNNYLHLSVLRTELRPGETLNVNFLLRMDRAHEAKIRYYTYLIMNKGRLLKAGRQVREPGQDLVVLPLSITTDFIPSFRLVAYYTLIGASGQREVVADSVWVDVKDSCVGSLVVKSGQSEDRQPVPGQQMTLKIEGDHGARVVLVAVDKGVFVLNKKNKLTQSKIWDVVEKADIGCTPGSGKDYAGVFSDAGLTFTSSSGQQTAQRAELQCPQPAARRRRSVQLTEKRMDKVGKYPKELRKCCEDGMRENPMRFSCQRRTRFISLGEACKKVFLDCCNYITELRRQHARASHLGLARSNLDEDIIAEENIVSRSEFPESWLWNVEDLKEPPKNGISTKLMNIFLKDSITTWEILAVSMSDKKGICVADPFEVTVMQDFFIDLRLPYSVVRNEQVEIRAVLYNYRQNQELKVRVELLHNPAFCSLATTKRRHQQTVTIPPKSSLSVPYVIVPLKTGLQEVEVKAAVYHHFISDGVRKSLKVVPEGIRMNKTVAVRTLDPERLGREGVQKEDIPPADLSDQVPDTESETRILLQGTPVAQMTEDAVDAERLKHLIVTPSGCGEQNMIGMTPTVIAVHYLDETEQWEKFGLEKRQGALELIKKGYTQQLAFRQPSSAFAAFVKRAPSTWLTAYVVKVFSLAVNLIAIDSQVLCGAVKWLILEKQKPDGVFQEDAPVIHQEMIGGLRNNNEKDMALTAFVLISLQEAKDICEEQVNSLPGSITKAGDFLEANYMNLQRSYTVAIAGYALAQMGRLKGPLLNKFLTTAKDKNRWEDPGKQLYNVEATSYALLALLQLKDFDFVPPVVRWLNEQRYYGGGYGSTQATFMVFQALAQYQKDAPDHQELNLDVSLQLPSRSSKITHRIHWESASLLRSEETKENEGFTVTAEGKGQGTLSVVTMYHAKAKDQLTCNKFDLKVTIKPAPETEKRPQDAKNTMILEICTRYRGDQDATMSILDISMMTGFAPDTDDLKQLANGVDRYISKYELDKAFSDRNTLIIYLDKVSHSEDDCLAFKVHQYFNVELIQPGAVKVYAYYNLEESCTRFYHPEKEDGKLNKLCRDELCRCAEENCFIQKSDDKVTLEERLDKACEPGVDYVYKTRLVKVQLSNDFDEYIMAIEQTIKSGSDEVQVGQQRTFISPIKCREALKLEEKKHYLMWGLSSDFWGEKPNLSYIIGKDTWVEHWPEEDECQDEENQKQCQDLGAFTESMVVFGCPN
Work on B1 yielded an IC50[nM], inhibition of hemolysis of less than 250 nM.
Work on B2 yielded an IC50[nM], inhibition of hemolysis of less than 250 nM.
B3 showed an IC50[nM], inhibition of hemolysis of less than 100 nM.
For B4, the IC50[nM], inhibition of hemolysis was less than 100 nM.
In the case of B5, the IC50, CP hemolysis is reported as greater than 10000 nM.
Work on B6 yielded an IC50[nM], inhibition of hemolysis of less than 100 nM.
Binder B7 has an IC50[nM], inhibition of hemolysis of less than 100 nM.
B8 gave an IC50[nM], inhibition of hemolysis of less than 100 nM.
With B9 the IC50, CP hemolysis was 500 nM.
With B10 the IC50[nM], inhibition of hemolysis was less than 100 nM.
With B11 the IC50[nM], inhibition of hemolysis was less than 100 nM.
B12 was tested, and the IC50[nM], inhibition of hemolysis was less than 250 nM.
Binder B13 has an IC50[nM], inhibition of hemolysis of less than 100 nM.
For B14, the IC50[nM], inhibition of hemolysis was less than 100 nM.
With B15 the IC50[nM], inhibition of hemolysis was less than 250 nM.
B16 was tested, and the IC50[nM], inhibition of hemolysis was less than 100 nM.
